The results in this text go back to paper PMC5539093, “Functional Characterization of Four Putative δ^1-Pyrroline-5-Carboxylate Reductases from Bacillus subtilis” (Frontiers in Microbiology, 2017).

The target of data set [1] is T1, ProI (Bacillus subtilis, UniProt P54552).
T1 construct: full-length; pMCSG68, N-terminal His6-TEV tag removed; E. coli BL21 Gold; homodimer by SAXS
The data set can be described thus: NAD(P)H oxidation at […] nm. The class given is biochemical.

The target in data set [2] is T2, ProH (Bacillus subtilis, UniProt P0CI77).
T2 construct: full-length; pMCSG68, N-terminal His6-TEV tag removed; E. coli BL21 Gold; homodimer by SAXS
The data set can be described thus: NAD(P)H oxidation at […] nm. The class given is biochemical.

In data set [3] the target is T3, ComER (Bacillus subtilis, UniProt P39696).
T3 construct: full-length; pMCSG68, N-terminal His6-TEV tag removed; E. coli BL21 Gold; monomer by SAXS
The data set can be described thus: NAD(P)H oxidation at […] nm. Type of data set: biochemical.

Data set [4] addresses T4, ProG (Bacillus subtilis, UniProt Q00777).
T4 construct: full-length; pMCSG68, N-terminal His6-TEV tag removed; E. coli BL21 Gold; homodimer by SAXS
Put plainly: NAD(P)H oxidation at […] nm. Type of data set: biochemical.

Substrate in data set [5]: NC(=O)C1=CN([C@@H]2O[C@H](COP(=O)(O)OP(=O)(O)OC[C@H]3O[C@@H](n4cnc5c(N)ncnc54)[C@H](OP(=O)(O)O)[C@@H]3O)[C@@H](O)[C@H]2O)C=CC1
The data set can be described thus: purified protein. Conditions: 1 mM L-P5C, 20 mM Tris-HCl pH 7.0, 30°C, kcat per monomer. Type of data set: biochemical, Bacillus subtilis.

Substrate in data set [6]: O=C(O)[C@@H]1CCC=N1
The data set can be described thus: purified protein. Conditions: 0.5 mM NADPH, 20 mM Tris-HCl pH 7.0, 30°C. The class given is biochemical, Bacillus subtilis.

Data set [7] concerns the molecule itself. Put plainly: small-angle X-ray scattering (SAXS) in line with SEC; each native protein at 5 mg mL^-1 loaded onto a Superdex 200 column in 20 mM HEPES pH 8.0, 150 mM NaCl, 2 mM TCEP, routed into the flow cell; oligomeric state from mass, Rg, Dmax and ab initio envelope.
Substrate in data set [8]: NC(=O)C1=CN([C@@H]2O[C@H](COP(=O)(O)OP(=O)(O)OC[C@H]3O[C@@H](n4cnc5c(N)ncnc54)[C@H](O)[C@@H]3O)[C@@H](O)[C@H]2O)C=CC1
Put plainly: purified protein. Type of data set: biochemical, Bacillus subtilis. As to conditions: 1 mM L-P5C, 20 mM Tris-HCl pH 7.0, 30°C.

Consider `NC(=O)c1ccc[n+]([C@@H]2O[C@H](COP(=O)(O)OP(=O)(O)OC[C@H]3O[C@@H](n4cnc5c(N)ncnc54)[C@H](O)[C@@H]3O)[C@@H](O)[C@H]2O)c1` [NAD^+], for which the IC50 (usually the concentration that inhibits the measured activity by half) in data set [1] turned out to be 6.22 ± 0.6 mM; in data set [2], 44.5 ± 11.6 mM; in data set [3], 29.7 ± 3.7 mM.
Turning to `O=C(O)[C@@H]1CCCN1` [proline], the IC50 in data set [4] turned out to be 22.3 ± 2.1 mM; in data set [2], 41.4 ± 4.2 mM.
Take `NC(=O)c1ccc[n+]([C@@H]2O[C@H](COP(=O)(O)OP(=O)(O)OC[C@H]3O[C@@H](n4cnc5c(N)ncnc54)[C@H](OP(=O)(O)O)[C@@H]3O)[C@@H](O)[C@H]2O)c1` [NADP^+]: the half-inhibitory concentration (IC50) in data set [4] amounted to 0.23 ± 0.03 mM; in data set [1], 0.34 ± 0.04 mM; in data set [2], 0.66 ± 0.1 mM; in data set [3], 0.48 ± 0.07 mM.

B1: ProG, putative δ1-pyrroline-5-carboxylate (P5C) reductase from Bacillus subtilis (enzyme, Bacillus subtilis strain 168, UniProt Q00777 1-272, looked up)
chain: MEQIGLIGYGSMADMIARQLLKHEQIKENELFIETRTKGERLRALMSDYPNVSADPLENWANTCQLILICVPPLHVIETMRRLYPYVNRNTHIVSIAAGVPLRLLEAETEAGISRVIPAITSEAEAGISLVVHSEALAAEKKERLNELLSVFSRVREIKESNLDVASNLTSSAPGFIAAIFEELALSAVRNSSLSKEEAFDFLIHSLYGTGKMLIEKNMSFEETLERVATKGGITGEGAEVIHASVPDVFDEVFERTLRKYELLTEQVGKQT
notes: ProG, putative P5C reductase, Bacillus subtilis strain 168; calculated mass 30.20 kDa; Cloned in pMCSG68 (His6 tag and TEV site at the N-terminus); also called P5C reductase ProG; source: E. coli BL21 Gold, purified (Ni-NTA, TEV cleavage, second Ni-NTA, SEC on Superdex 200); not shown: His6, N-terminal, cleaved
For the molecule B1, in data set [5], the Km (usually the concentration of substrate that gives half-maximal velocity) was 232 ± 18 µM; the catalytic constant (kcat) (in general, the maximal rate divided by the concentration of active sites) was determined as 19 s⁻¹; the kcat/Km (in general, the turnover number divided by the Michaelis constant) stood at 84000 M⁻¹ s⁻¹. The Km in data set [6] was 64.9 ± 8.1 µM. Besides, in data set [7], the stoichiometry N (usually a count of units in the complex or per binding partner) is 2.

B2: ProI, putative δ1-pyrroline-5-carboxylate (P5C) reductase from Bacillus subtilis (enzyme, Bacillus subtilis strain 168, UniProt P54552 1-278, looked up)
chain: MKKIGFVGAGSMAEAMINGILQSGITKPEHIYITNRSNDERLIELKETYSVRPCRDKNEFFTHTDIIILAFKPKDAAESIDSIRPYIKDQLVISVLAGLTIETIQHYFGRKLAVIRVMPNTSAAIRKSATGFSVSTEASKNDIIAAKALLETIGDATLVEERHLDAVTAIAGSGPAYVYRYIEAMEKAAQKVGLDKETAKALILQTMAGATDMLLQSGKQPEKLRKEITSPGGTTEAGLRALQDSRFEEAIIHCIEETAKRSAEIKEQFAGAALERHS
notes: ProI, putative P5C reductase, Bacillus subtilis strain 168; calculated mass 30.90 kDa; Cloned in pMCSG68 (His6 tag and TEV site at the N-terminus); also called P5C reductase ProI; source: E. coli BL21 Gold, purified (Ni-NTA, TEV cleavage, second Ni-NTA, SEC on Superdex 200); not shown: His6, N-terminal, cleaved
Regarding B2, in data set [8] (kcat per monomer), the Km is 1,810 ± 480 μM, the kcat was found to be 0.28 s⁻¹ and the kcat/Km was determined as 150 M⁻¹ s⁻¹. Further, in data set [5], the Km came to 51.8 ± 2.8 µM, the kcat came out at 0.14 s⁻¹ and the kcat/Km is 2600 M⁻¹ s⁻¹. Further, the Km in data set [6] worked out at 203 ± 30 µM. For the same molecule, the “stoichiometry N” value in data set [7] is 2.

B3: ProH (Bacillus subtilis subsp. subtilis str. 168) (protein)
chain: MRTKKRTKEMLPIFDQKKVAFIGAGSMAEGMISGIVRANKIPKQNICVTNRSNTERLTELELQYGIKGALPNQLCIEDMDVLILAMKPKDAENALSSLKSRIQPHQLILSVLAGITTSFIEQSLLNEQPVVRVMPNTSSMIGASATAIALGKYVSEDLKKLAEALLGCMGEVYTIQENQMDIFTGIAGSGPAYFYYLMEFIEKTGEEAGLDKQLSRSIGAQTLLGAAKMLMETGEHPEILRDNITSPNGTTAAGLQA
notes: full-length; pMCSG68, N-terminal His6-TEV tag removed; E. coli BL21 Gold; homodimer by SAXS
Turning to B3, the Km in data set [8] turned out to be 786 ± 36 µM. For the same molecule, in data set [5], the Km turned out to be 13.6 ± 2.6 µM, the kcat was found to be 814 s⁻¹ and the kcat/Km was determined as 6.3e+07 M⁻¹ s⁻¹.

B4: ComER (Bacillus subtilis subsp. subtilis str. 168) (protein)
chain: MKIGFIGTGNMGTILIESFIESKAADPSNMTITNRTIEKALHIKNRYNSINVTESLEKLVSENEMIFICVKPLDIYPLLARALPYLRKDHILISITSPVQTEQLEQYVPCQVARVIPSITNRALAGVSLVTFGTSCGESAKAKINELMQHISHPLQIESDITRVASDIVSCGPAFMSYLIQRFIDAAVSETSVSKQDAILMCKEMLVGMGKLLETELYTLPALQEKVCVKGGVTGEGIKALESGVQDMFHRVFQNTHMKYEEDISAVKKQFHV
notes: full-length; pMCSG68, N-terminal His6-TEV tag removed; E. coli BL21 Gold; monomer by SAXS
As to B4, in data set [8] (kcat per monomer), the Km worked out at 226 ± 14 µM, the kcat amounted to 0.06 s⁻¹ and the kcat/Km was 270 M⁻¹ s⁻¹. Besides, in data set [5], the Michaelis-Menten constant (Km) turned out to be 1.2 ± 0.4 µM, the kcat was 0.09 s⁻¹ and the kcat/Km amounted to 75000 M⁻¹ s⁻¹. In data set [6] (kcat per monomer), the Michaelis-Menten constant (Km) came out at 3150 ± 1420 µM and the kcat was determined as 0.09 s⁻¹.

B5: ProH, putative δ1-pyrroline-5-carboxylate (P5C) reductase from Bacillus subtilis (enzyme, Bacillus subtilis strain 168, UniProt P0CI77 1-297, looked up)
chain: MRTKKRTKEMLPIFDQKKVAFIGAGSMAEGMISGIVRANKIPKQNICVTNRSNTERLTELELQYGIKGALPNQLCIEDMDVLILAMKPKDAENALSSLKSRIQPHQLILSVLAGITTSFIEQSLLNEQPVVRVMPNTSSMIGASATAIALGKYVSEDLKKLAEALLGCMGEVYTIQENQMDIFTGIAGSGPAYFYYLMEFIEKTGEEAGLDKQLSRSIGAQTLLGAAKMLMETGEHPEILRDNITSPNGTTAAGLQALKKSGGGEAISQAIKHAAKRSKEISEDIEKTAAPLSGVIK
notes: ProH, putative P5C reductase, Bacillus subtilis strain 168; calculated mass 32.03 kDa; Cloned in pMCSG68 (His6 tag and TEV site at the N-terminus); also called P5C reductase ProH; source: E. coli BL21 Gold, purified (Ni-NTA, TEV cleavage, second Ni-NTA, SEC on Superdex 200); not shown: His6, N-terminal, cleaved
Take B5: the “stoichiometry N” value in data set [7] came out at 2.
